This passage reports Kd results from paper PMC5916898.

The subject of one data set is BAZ1A (human (HeLa)). As to the kind of experiment: pull-down TMT-MS titration. To be noted: apparent, Pull-down: 150 mM NaCl (or LiCl), 50 mM Tris pH 8, 0.25% NP-40, 1 mM TCEP, protease inhibitors, 4 C, 2 h, EMSA with lysate in same buffer, RT 15 min, FP in …. (A gel shift assay detects complexes by their altered migration in electrophoresis.)
The next data set has as its system BAZ1B (human (HeLa)). Description: pull-down TMT-MS titration. To be noted: apparent, Pull-down: 150 mM NaCl (or LiCl), 50 mM Tris pH 8, 0.25% NP-40, 1 mM TCEP, protease inhibitors, 4 C, 2 h, EMSA with lysate in same buffer, RT 15 min, FP in ….
The test system of a further data set is BPTF (human (HeLa)). Description: pull-down TMT-MS titration. Conditions: apparent, Pull-down: 150 mM NaCl (or LiCl), 50 mM Tris pH 8, 0.25% NP-40, 1 mM TCEP, protease inhibitors, 4 C, 2 h, EMSA with lysate in same buffer, RT 15 min, FP in ….
The test system of the next data set is C17orf49 (human (HeLa)). As to the kind of experiment: pull-down TMT-MS titration. To be noted: apparent; histone H3K4me3; Pull-down: 150 mM NaCl (or LiCl), 50 mM Tris pH 8, 0.25% NP-40, 1 mM TCEP, protease inhibitors, 4 C, 2 h; EMSA with lysate in same buffer, RT 15 min; FP in ….
For another data set, the system named is SMARCA2 (human (HeLa)). As to the kind of experiment: pull-down TMT-MS titration. Conditions: apparent, Pull-down: 150 mM NaCl (or LiCl), 50 mM Tris pH 8, 0.25% NP-40, 1 mM TCEP, protease inhibitors, 4 C, 2 h, EMSA with lysate in same buffer, RT 15 min, FP in ….
In a further data set the target is SMARCA4 (human (HeLa)) (UniProt P51532). As to the kind of experiment: pull-down TMT-MS titration. Conditions: apparent, Pull-down: 150 mM NaCl (or LiCl), 50 mM Tris pH 8, 0.25% NP-40, 1 mM TCEP, protease inhibitors, 4 C, 2 h, EMSA with lysate in same buffer, RT 15 min, FP in ….
Chain of SMARCA4 (human (HeLa)) (P51532 whole entry): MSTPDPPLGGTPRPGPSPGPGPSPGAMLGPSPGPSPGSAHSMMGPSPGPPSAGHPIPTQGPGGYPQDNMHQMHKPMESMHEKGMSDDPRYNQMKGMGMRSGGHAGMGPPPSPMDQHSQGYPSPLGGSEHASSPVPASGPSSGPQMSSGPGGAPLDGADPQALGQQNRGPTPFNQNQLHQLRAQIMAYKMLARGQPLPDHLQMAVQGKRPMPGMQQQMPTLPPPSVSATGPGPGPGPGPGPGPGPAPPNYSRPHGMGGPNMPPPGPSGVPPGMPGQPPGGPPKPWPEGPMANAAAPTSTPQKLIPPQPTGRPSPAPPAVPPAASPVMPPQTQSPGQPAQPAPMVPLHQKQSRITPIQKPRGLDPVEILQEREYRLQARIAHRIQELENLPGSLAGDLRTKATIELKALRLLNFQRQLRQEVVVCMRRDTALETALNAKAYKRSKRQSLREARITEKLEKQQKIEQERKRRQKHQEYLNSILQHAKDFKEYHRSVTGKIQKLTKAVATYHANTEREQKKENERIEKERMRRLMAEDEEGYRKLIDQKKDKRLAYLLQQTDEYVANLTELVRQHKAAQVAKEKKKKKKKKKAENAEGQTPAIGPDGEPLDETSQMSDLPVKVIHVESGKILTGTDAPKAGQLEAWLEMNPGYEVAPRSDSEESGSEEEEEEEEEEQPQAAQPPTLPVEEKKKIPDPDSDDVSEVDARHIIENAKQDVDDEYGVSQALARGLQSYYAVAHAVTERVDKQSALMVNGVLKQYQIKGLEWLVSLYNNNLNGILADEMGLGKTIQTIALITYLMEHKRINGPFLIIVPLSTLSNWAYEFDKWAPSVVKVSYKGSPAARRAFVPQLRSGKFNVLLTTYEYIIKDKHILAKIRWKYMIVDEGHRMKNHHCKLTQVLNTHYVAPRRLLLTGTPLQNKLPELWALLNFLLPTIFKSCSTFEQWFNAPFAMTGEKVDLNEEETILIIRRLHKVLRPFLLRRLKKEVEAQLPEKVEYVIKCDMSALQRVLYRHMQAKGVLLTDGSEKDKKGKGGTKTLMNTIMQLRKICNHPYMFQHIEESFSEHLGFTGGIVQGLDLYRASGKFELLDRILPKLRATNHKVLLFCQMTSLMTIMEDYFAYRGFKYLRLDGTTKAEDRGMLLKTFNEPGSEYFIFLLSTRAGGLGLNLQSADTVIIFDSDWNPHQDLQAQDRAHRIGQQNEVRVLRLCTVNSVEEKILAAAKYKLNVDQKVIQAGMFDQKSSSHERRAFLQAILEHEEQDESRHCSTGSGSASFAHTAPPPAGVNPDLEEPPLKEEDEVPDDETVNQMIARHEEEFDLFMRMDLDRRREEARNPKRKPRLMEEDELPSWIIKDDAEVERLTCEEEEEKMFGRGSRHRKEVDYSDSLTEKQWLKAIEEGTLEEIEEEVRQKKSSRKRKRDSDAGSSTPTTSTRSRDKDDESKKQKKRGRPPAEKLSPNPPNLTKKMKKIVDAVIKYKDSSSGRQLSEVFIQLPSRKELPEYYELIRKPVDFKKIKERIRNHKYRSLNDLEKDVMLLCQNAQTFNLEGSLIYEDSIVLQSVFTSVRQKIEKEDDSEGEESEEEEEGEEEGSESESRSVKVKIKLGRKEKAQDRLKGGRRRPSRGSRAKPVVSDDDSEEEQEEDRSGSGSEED
The target in a further data set is SMARCA5 (human (HeLa)) (UniProt O60264). Description: pull-down TMT-MS titration. To be noted: apparent, Pull-down: 150 mM NaCl (or LiCl), 50 mM Tris pH 8, 0.25% NP-40, 1 mM TCEP, protease inhibitors, 4 C, 2 h, EMSA with lysate in same buffer, RT 15 min, FP in ….
Chain of SMARCA5 (human (HeLa)) (O60264 2-1052): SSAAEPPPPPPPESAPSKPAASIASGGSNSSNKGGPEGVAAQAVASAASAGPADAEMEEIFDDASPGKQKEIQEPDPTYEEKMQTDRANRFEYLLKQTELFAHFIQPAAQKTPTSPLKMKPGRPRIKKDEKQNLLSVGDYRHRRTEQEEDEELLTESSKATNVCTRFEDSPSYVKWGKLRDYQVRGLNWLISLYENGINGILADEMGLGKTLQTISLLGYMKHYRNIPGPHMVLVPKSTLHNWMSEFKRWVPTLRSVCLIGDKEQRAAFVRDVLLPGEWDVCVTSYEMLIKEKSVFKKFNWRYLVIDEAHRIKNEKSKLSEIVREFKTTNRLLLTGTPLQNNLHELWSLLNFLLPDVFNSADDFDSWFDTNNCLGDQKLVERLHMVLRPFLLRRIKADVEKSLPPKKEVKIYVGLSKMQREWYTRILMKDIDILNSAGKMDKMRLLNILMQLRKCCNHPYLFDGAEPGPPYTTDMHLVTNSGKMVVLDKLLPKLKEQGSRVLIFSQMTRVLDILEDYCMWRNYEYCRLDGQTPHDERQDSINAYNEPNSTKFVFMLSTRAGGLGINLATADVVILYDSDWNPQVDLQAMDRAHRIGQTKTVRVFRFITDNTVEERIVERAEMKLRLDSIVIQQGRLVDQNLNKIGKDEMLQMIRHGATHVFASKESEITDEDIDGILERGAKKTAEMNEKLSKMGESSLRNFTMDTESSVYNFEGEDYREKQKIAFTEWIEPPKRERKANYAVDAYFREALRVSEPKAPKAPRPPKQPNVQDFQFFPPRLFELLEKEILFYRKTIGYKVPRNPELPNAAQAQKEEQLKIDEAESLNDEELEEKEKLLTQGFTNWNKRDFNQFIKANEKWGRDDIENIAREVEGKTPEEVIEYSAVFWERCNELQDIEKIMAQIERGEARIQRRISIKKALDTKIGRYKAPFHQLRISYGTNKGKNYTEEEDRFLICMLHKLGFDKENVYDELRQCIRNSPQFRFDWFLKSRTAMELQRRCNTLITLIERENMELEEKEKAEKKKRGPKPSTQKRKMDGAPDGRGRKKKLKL
Another data set has as its system PHF10 (human (HeLa)). As to the kind of experiment: pull-down TMT-MS titration. To be noted: apparent; histone H3K9ac K14ac; Pull-down: 150 mM NaCl (or LiCl), 50 mM Tris pH 8, 0.25% NP-40, 1 mM TCEP, protease inhibitors, 4 C, 2 h; EMSA with lysate in same buffer, RT 15 min; FP in ….
Data set [1] deals with GST-KLF4-ZF (UniProt O43474). Description: fluorescence polarization. Conditions: Pull-down: 150 mM NaCl (or LiCl), 50 mM Tris pH 8, 0.25% NP-40, 1 mM TCEP, protease inhibitors, 4 C, 2 h; EMSA with lysate in same buffer, RT 15 min; FP in …. (In fluorescence polarisation assays a small probe gives low polarisation when free and higher when bound to something large.)
Chain of GST-KLF4-ZF (O43474 whole entry): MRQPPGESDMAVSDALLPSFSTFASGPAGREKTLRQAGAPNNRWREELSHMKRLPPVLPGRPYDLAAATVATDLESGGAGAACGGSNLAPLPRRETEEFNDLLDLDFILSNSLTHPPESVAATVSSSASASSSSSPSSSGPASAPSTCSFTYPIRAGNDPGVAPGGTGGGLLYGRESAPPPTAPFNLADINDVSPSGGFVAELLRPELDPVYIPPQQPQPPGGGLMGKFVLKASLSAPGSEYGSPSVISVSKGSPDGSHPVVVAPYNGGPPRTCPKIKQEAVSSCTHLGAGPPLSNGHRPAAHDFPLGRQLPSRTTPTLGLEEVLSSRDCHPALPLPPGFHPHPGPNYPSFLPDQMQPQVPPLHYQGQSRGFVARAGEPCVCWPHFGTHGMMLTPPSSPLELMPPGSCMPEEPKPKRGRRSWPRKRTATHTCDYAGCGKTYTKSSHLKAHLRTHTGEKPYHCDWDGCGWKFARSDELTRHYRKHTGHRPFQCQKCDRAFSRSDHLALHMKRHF
The target in data set [2] is GST-KLF4-ZF (UniProt O43474). As to the kind of experiment: fluorescence intensity (de-quenching). To be noted: Pull-down: 150 mM NaCl (or LiCl), 50 mM Tris pH 8, 0.25% NP-40, 1 mM TCEP, protease inhibitors, 4 C, 2 h; EMSA with lysate in same buffer, RT 15 min; FP in ….
For data set [3], the target named is H3K9AcK14Ac modified di-nucleosome (human) (UniProt P68431). As to the kind of experiment: affinity purification with mass spectrometry; titration series of ten concentrations of biotinylated recombinant di-nucleosome on streptavidin beads; 100 ug HeLa nuclear lysate per pulldown in PBB (150 mM NaCl, 50 mM Tris pH 8, 0.25% NP-40, 1 mM TCEP), 2 h at 4 °C; 10-plex TMT, SPS-MS3; apparent Kd from a Hill-like fit, triplicate, r^2 > 0.9.

Chain of PHF10 (Q8WUB8 whole entry): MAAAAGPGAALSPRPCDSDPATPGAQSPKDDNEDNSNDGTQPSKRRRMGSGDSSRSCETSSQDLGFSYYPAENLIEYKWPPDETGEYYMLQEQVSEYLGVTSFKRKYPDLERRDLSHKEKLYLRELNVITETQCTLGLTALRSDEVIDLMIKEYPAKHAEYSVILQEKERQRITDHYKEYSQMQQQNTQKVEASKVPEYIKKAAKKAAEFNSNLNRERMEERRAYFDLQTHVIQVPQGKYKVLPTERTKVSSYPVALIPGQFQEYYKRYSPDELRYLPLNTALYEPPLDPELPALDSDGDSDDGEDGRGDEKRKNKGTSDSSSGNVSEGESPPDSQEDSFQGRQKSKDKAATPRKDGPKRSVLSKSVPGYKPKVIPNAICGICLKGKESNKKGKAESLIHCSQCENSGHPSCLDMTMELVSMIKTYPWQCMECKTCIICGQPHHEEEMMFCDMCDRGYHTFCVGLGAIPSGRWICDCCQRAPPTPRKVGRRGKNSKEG

H3K4me3 di-nucleosome: the Kd in the data set on BAZ1A (human (HeLa)) (histone H3K4me3) amounted to 0.1 µM; in the data set with BAZ1B (human (HeLa)) (histone H3K4me3), 0.0906 µM; in the data set on BPTF (human (HeLa)) (histone H3K4me3) it was 0.054 µM; in the data set on C17orf49 (human (HeLa)), 0.0687 µM; in the data set with SMARCA2 (human (HeLa)) (histone H3K4me3), 0.0518 µM; in the data set with SMARCA4 (human (HeLa)) (histone H3K4me3) it was 0.123 µM. In addition, the Kd with SMARCA5 (human (HeLa)) (histone H3K4me3) is 0.0824 µM.

Turning to H3K9AcK14Ac di-nucleosome, the Kd in the data set on BAZ1A (human (HeLa)) (histone H3K9ac K14ac) worked out at 0.114 µM; in the data set on BAZ1B (human (HeLa)) (histone H3K9ac K14ac), 0.015 µM; in the data set on BPTF (human (HeLa)) (histone H3K9ac K14ac), 0.0279 µM; in the data set with PHF10 (human (HeLa)) it was 0.035 µM; in the data set with SMARCA2 (human (HeLa)) (histone H3K9ac K14ac) it was 0.0359 µM; with SMARCA4 (human (HeLa)) (histone H3K9ac K14ac), 0.0687 µM. In the data set with SMARCA5 (human (HeLa)) (histone H3K9ac K14ac), the Kd was determined as 0.0526 µM.

Consider “GAGAGCCCCGCCCCCTGGCT (double strand) [SP/KLF wild-type Cy5]”, for which the Kd is 0.0218 µM in the data set with GST-KLF4-ZF [1] and 0.0202 µM with GST-KLF4-ZF [2].

On to “PHF10 (from UniProt Q8WUB8 1-498) (natural protein)”, for which, in [3], the Kd was determined as 0.035 µM.

As to unmodified H3 di-nucleosome, the Kd was 0.151 µM in the data set on BAZ1A (human (HeLa)); 0.122 µM in the data set with BAZ1B (human (HeLa)); 0.0532 µM with BPTF (human (HeLa)); 0.162 µM in the data set on SMARCA2 (human (HeLa)); 0.174 µM with SMARCA4 (human (HeLa)); 0.102 µM with SMARCA5 (human (HeLa)).
